Data set [1] has as its target T1, glutamate dehydrogenase (nGDH, native) (Clostridium difficile, UniProt P27346 SEQ:1-421).
T1 sequence: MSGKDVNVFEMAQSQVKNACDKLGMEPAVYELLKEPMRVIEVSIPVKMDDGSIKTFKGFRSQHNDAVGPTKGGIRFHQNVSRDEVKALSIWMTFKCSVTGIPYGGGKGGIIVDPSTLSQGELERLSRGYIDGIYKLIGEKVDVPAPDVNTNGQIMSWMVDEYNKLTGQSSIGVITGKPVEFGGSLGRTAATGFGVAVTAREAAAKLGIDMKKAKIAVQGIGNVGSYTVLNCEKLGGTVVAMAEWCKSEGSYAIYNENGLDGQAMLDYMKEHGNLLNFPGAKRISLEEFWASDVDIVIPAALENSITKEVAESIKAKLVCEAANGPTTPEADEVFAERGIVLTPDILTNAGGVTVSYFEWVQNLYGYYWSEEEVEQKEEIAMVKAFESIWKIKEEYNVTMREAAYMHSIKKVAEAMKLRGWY
In words: FP filter; paper filter binding; binding buffer with 10 mM MgCl2, 1% BSA. The settings on record: tags: Pro-Lab Diagnostics; chain copies: 6 stated; label: 32P.

In data set [2] the target is T2, glutamate dehydrogenase (rGDH, recombinant) (Clostridium difficile, UniProt P27346 SEQ:1-421).
T2 sequence: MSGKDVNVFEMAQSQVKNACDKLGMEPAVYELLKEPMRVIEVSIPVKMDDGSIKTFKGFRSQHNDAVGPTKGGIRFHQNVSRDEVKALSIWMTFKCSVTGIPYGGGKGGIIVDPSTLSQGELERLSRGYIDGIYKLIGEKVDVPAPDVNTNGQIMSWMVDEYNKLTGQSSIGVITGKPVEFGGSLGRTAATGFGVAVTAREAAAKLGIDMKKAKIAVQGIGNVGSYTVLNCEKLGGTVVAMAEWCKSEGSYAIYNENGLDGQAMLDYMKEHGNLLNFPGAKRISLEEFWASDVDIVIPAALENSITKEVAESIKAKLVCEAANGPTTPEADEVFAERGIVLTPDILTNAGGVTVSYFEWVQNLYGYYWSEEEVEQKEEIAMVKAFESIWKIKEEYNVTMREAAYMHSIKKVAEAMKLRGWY
In words: pulldown; 10 mM MgCl2, 150 mM NaCl, pH 7.2, 25 C; epitope distinct from aptamer 2. The settings on record: tags: His-tag; expressed in E. coli; Pro-Lab Diagnostics; chain copies: 6; label: 32P. The protocol:
(§1) Following three washing steps, proteins and bound aptamers were eluted with 30 μL of elution buffer (20 mM Tris-HCl, 500 mM imidazole, pH 7.5) by shaking at 90° C. for 10 min. The resultant mixtures were then analyzed by 10% dPAGE, and quantified by Image Quant software. […] Pull-down assays were conducted in a total volume of 300 μL of 1× binding buffer containing 10 μL of bead-bound rGDH (final concentration ˜9.2 nM) and 100 μL of aptamers with serial dilutions for 30 min with gentle rotation. Following washing steps, the bound DNA was then analyzed by 10% dPAGE. The apparent dissociation constants (Kd) of each aptamer candidate were obtained by fitting the fractional bound DNA to the total aptamer concentration using a one-site binding model.
(§2) The inventors measured the dissociation constant (Kd) for Capt-2 and Capt-4 using the same pull-down assay, along with their linear counterparts, Lapt-2 and Lapt-4 (FIG. 2b). […] The structural prediction with the m-fold program (http: //unafold.rna.albany.edu/?q=mfold) also provides a good rationale for the functionality of aptamer 2 in both circular and linear configurations, as the random-sequence nucleotides are predicted to form the same structural elements in both forms (FIG. 9). […]

The next data set addresses toxin A (TcdA) (Clostridium difficile, UniProt P16154 SEQ:1-2710).
Data set [3] deals with bovine serum albumin (BSA) (UniProt P02769 P02769:25-607).
A further data set concerns the target toxin B (TcdB) (Clostridium difficile, UniProt P18177 SEQ:2-2366).
Data set [4] addresses T2, glutamate dehydrogenase (rGDH, …). In words: pulldown; 10 mM MgCl2, pH 7.2, 25 C; no detectable binding in dot blot (p157). The note with it: tags: His-tag; expressed in E. coli; Pro-Lab Diagnostics; chain copies: 6; label: 32P; linear. The protocol:
as §1, §2

For data set [5] the target is unchanged. In words: pulldown; no affinity to rGDH. The settings on record: tags: His-tag; expressed in E. coli; Pro-Lab Diagnostics; chain copies: 6; label: 32P. The protocol: as §1, with “The pull-down assays were conducted in a total volume of 300 μL of 1× binding buffer containing 50 μL of bead-bound rGDH (final concentration ˜50 nM) and 100 μL of 100 nM captamer candidates for 30 min with gentle rotation. In parallel, negative controls consisting of the captamers incubated with uncoated beads were included. Following three” for “Following three”
However, Capt-4 was a new sequence that was not observed in the previous selection. […] In this assay, each captamer candidate was incubated with bare NiMBs or rGDH-coated NiMBs, followed by elution of the bound captamer and radioactivity analysis by dPAGE (FIG. 2a).

For data set [6] the target is unchanged. In words: pulldown; competes with Anti-G1, Anti-G3, Anti-G7. The settings on record: tags: His-tag; expressed in E. coli; Pro-Lab Diagnostics; chain copies: 6; label: 32P; linear.
The target is the same in data set [7]. In words: pulldown; competes with Anti-G1T1, same epitope. The settings on record: tags: His-tag; expressed in E. coli; Pro-Lab Diagnostics; chain copies: 6; label: 32P; linear.
For data set [8] the target is unchanged. In words: pulldown; […]; 50 mM HEPES, 150 mM NaCl, 10 mM MgCl2, 5 mM KCl, 0.02% Tween-20, pH 7.2, 25 C. The note with it: tags: His-tag; expressed in E. coli; Pro-Lab Diagnostics; chain copies: 6; label: 32P.
Data set [9] has the same target. In words: pulldown. The settings on record: tags: His-tag; expressed in E. coli; Pro-Lab Diagnostics; chain copies: 6; label: 32P; linear. The protocol: 100 μL of 1× binding buffer containing 100 nM γ-[³²P]-labeled captamer candidates was first denatured at 90° C. for 10 min, followed by incubation at RT for 20 min. The pull-down assays were conducted in a total volume of 300 μL of 1× binding buffer containing 50 μL of bead-bound rGDH (final concentration ˜50 nM) and 100 μL of 100 nM captamer candidates for 30 min with gentle rotation. In parallel, negative controls consisting of the captamers incubated with uncoated beads were included. Following three washing steps, proteins and bound aptamers were eluted with 30 μL of elution buffer (20 mM Tris-HCl, 500 mM imidazole, pH 7.5) by shaking at 90° C. for 10 min. The resultant mixtures were then analyzed by 10% dPAGE, and quantified by Image Quant software. […] Pull-down assays were conducted in a total volume of 300 μL of 1× binding buffer containing 10 μL of bead-bound rGDH (final concentration ˜9.2 nM) and 100 μL of aptamers with serial dilutions for 30 min with gentle rotation. Following washing steps, the bound DNA was then analyzed by 10% dPAGE. […]
The inventors measured the dissociation constant (Kd) for Capt-2 and Capt-4 using the same pull-down assay, along with their linear counterparts, Lapt-2 and Lapt-4 (FIG. 2b). […]

9 molecules from patent US20200340042, “IN VITRO SELECTION FOR NUCLEIC ACID […]” (McMaster University, published 2020) can be followed below.

Sequence of bovine serum albumin (BSA) (P02769 25-607, one chain of several): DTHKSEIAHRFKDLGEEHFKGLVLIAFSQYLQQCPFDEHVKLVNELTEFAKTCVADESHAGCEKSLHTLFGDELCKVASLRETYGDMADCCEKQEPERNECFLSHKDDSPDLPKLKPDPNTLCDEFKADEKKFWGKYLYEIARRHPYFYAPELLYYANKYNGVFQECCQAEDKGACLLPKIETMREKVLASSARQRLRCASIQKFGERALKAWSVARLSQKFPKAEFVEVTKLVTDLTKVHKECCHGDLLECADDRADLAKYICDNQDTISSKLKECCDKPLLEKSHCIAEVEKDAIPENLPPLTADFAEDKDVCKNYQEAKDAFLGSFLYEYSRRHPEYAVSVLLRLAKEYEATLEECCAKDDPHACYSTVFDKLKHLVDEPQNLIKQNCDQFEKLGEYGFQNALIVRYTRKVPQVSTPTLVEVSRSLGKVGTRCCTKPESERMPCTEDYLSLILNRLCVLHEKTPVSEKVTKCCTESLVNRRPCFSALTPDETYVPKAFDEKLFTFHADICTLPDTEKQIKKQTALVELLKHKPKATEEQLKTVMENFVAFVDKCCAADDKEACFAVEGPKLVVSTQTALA
Sequence of toxin A (TcdA) (P16154 whole entry): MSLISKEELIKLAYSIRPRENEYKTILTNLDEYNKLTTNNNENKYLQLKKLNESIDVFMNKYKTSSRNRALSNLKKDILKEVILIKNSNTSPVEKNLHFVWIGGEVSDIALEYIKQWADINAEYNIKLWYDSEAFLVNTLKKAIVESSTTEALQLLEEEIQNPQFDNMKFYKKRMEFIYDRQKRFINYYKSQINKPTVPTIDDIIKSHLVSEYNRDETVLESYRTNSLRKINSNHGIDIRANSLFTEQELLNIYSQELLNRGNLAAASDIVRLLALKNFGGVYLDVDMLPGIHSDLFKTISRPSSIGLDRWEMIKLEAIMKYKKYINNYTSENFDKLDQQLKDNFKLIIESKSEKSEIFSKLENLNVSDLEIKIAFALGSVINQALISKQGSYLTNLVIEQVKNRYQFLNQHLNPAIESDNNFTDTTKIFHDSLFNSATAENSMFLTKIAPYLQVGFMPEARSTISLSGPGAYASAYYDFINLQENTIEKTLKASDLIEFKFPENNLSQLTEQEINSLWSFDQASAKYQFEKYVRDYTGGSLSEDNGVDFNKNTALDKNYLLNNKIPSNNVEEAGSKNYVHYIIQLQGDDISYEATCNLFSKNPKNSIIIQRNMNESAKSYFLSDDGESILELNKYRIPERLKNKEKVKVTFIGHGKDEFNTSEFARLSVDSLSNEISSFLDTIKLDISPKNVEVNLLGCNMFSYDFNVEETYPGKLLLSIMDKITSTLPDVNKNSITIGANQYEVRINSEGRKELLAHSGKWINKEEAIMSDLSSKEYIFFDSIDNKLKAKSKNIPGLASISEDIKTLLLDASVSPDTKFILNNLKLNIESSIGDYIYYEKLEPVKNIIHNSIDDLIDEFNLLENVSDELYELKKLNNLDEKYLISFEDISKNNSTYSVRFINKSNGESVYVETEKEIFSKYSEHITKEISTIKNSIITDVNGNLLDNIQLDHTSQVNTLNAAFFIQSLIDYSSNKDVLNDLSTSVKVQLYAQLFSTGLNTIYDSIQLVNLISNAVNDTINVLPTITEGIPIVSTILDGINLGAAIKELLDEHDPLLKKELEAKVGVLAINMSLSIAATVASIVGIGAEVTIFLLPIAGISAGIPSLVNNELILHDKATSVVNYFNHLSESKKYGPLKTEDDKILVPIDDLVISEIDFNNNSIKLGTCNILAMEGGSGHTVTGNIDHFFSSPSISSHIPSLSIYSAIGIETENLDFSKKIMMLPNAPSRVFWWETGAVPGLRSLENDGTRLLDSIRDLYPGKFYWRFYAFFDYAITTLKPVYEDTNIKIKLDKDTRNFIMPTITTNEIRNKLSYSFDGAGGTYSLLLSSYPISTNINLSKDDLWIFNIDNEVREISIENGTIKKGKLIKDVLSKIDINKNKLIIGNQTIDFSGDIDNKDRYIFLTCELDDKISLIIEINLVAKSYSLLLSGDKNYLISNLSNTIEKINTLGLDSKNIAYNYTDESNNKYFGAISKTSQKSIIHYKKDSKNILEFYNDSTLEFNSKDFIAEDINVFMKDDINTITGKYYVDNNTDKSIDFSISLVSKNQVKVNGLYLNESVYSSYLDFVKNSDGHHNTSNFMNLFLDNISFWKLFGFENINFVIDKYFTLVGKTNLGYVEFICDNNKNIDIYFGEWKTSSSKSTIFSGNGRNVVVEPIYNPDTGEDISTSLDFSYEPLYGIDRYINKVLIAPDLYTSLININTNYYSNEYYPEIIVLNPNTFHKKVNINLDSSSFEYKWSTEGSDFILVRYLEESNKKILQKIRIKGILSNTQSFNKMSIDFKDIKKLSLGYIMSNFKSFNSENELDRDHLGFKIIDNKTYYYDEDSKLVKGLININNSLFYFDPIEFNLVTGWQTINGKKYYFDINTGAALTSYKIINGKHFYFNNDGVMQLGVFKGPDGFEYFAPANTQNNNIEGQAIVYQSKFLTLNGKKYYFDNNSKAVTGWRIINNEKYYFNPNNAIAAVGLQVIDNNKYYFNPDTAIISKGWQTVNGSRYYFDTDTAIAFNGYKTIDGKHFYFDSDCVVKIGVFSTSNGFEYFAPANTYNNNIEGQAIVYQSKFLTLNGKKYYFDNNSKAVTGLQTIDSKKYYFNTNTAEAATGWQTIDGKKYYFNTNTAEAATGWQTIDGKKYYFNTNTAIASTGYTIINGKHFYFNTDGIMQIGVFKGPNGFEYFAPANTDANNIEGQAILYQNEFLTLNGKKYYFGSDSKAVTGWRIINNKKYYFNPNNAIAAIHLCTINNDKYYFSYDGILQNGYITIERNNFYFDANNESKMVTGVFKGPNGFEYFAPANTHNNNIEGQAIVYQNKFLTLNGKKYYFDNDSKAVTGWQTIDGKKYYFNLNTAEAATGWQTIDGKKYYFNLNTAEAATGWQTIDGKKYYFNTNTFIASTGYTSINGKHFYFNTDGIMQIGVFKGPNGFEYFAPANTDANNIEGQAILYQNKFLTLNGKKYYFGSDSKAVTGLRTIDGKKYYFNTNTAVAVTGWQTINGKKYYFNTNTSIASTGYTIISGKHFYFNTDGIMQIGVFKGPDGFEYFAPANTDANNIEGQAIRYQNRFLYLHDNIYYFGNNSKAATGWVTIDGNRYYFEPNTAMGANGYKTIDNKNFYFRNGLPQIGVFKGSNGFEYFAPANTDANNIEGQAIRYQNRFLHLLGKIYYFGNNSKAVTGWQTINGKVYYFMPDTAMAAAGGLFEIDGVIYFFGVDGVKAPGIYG

B1: Capt-4 (ssDNA)
DNA: CAGGTCCATCGAGTGGTAGGACGACCCGAATAGTGGCATATCAATGAGTGCTTGTCATCTTTCGCACTGCTCCTGAACGTAC
Turning to B1, the figures for the Kd in data set [1] and in data set [2] were 2.8 nM and 12.3 nM, respectively. For the same molecule, the binding result (with toxin A (TcdA); in data set [3]; in the data set with toxin B (TcdB)) was “no binding” each time.

B2: Lapt-4 (ssDNA)
DNA: CAGGTCCATCGAGTGGTAGGACGACCCGAATAGTGGCATATCAATGAGTGCTTGTCATCTTTCGCACTGCTCCTGAACGTAC
B2: the Kd (as a rule, the concentration at which binding is half-saturated) in [4] is 293 nM.

B3: Scrambled Capt-2 (ssDNA)
DNA: CGGGAGTACGCATGTATGAGACACCCACGCTATGTCCCTACTATGAGGTGGAGACTTGCTACGTGCATCGCAGATCGGTCAA
Take B3: the binding result in data set [5] is “no binding”.

B4: Anti-G1T1 (ssDNA)
DNA: TAGGAGGAGGTATTTAGTGCCAAGCCATCTCAAACGACGTCTGAGTCGCACTGCTCCTG
As to B4, in [6], the binding result was “binds”.

B5: Scrambled Capt-4 (ssDNA)
DNA: GAAGGATTCGGACTAGGATCCGGTCCAACTACCGGTGCCCTAATGGCATCAAAACTGCGTACCGAGCGTGTTTATCTTTCTG
In the case of B5, in [5], the binding result is “no binding”.

B6: Anti-G3 (ssDNA)
DNA: CAGGTCCATCGAGTGGTAGGATGCAGCGGACAGTGTGGGACCATCGCTGCGGATGTATGAATCGCACTGCTCCTGAACGTAC
B6: the binding result in [7] is on record as “binds”.

B7: Capt-2 (ssDNA)
DNA: CAGGTCCATCGAGTGGTAGGAGGAGGTATTTAGTGCCAAGCCATCTCAAACGACGTCTGAGTCGCACTGCTCCTGAACGTAC
As for B7, in data set [8], the Kd amounted to 4.4 nM.

B8: Lapt-2 (Anti-G1) (ssDNA)
DNA: CAGGTCCATCGAGTGGTAGGAGGAGGTATTTAGTGCCAAGCCATCTCAAACGACGTCTGAGTCGCACTGCTCCTGAACGTAC
For B8, the Kd in [9] worked out at 5.6 nM.

B9: Anti-G7 (ssDNA)
DNA: CAGGTCCATCGAGTGGTAGGACCCAACCCACGATGCGCAAGAGGAATGCAGCCTACCAGCATCGCACTGCTCCTGAACGTAC
Consider B9, for which the binding result in data set [7] is “binds”.
